Test results published in the DeepSol protein solubility set.

Assay: soluble on expression in E. coli; label from the status in PepcDB or PDB records

Sequence | soluble on expression in E. coli
MSERLESRLAKVPKVTPEDIGNWLAEAETESELTEELNANAVFYLALSFAYESIAADAARYFSYTDGEESVDKSMIFANYKKLSADALKKYRKYRRGKGTHQTFAKRADGR | not soluble
MWAQKTLQLKARSRGFHLITDEIEQQLPQIHELSVGLLHLFIQHTSASLTLNENADPTVRMDMEAHFNKFVQERAPYYQHTYEGDDDMPAHIKASLLGSSVTIPIQNGRLALGTWQGIYLGEHRDFGGSRRIIATINGELEHHHHHH | soluble
MSLQEVITLKVIGPWSGAELDAFMEVLKAFEKQHPNIKIEYKTYRAEDLSTILPLQFESHDTPADVIFMWGWFIAEMGKKGHLMELNNIINPEEYVPGILDSVTVDGKIYGAPFTAAAKPGFWYRKSFFEKHNLKPPKTWDDFVALLEEIKKIPGIKAPIVSGDSVGWPLSDVTEHFILTFGGKDLQLKLIKGEVKWEDPQVRKIFEEKLVPLLKAGYFSDPIEWTSAVDLWWKGEYALYFMGTWITGMVDDPNDLGLIPLPGVKAMVIAPDYLMVPKYTSHPKEALELAKFLATEGQRIHVGTKSGKLATWKKVSIDDYWAPMRDVAKIVANVESAPDLDDSVGGEWQKVFWDQLKLLWVQPDRLDEVLKTLDEKFPKEGHHHHHH | soluble
MGSDKIHHHHHHMSQERTDGDLRNTGLSLKHDREWDYELDRIVEAVEERDAEKVGLQFPEGLKRRGPAVADDLREELPDDVTVLLSGQPCYGACDLDTYMMRRTDVFVHFGHSPMKESDKIIYVPLFSNVDVFPIMEQAREEQLADPEDDPDVGLVTTAQHMNKFDEMREWLEERGYTVHTRRGDERLTHEGQVLGCNYASADVDADQMLYVGGGKFHPLGLAMEHPEKHVVIADPVNNVVTVADTEKFMKQRYGAVHRAMDAESWGVIFCTKIGQGRWDQAEEIVENNENAYLITMDEVTPDRLTNFGMDAYVNTGCPRITTDDGPQFKKPMLTPGEYEIAIGEKPLDSLEFDTFHGTW | not soluble
VRNSPDLLDEIRAGITVHARPDLQTPIDGLLLSKVTAESAAPEYSLTEPLLVIMTQGGKRLLLGDRLYEYRAGQCLVVTASVPVTGHYIDISEGAPSLAMGLVLRPAAIAALVLQAPTERWSRGAAGVPAIETGDADVHLLDAAARMLRLLDHPADAPVLAPLIEQEILWRLLTGPHGSTIRQIGMADSDLAHVSRAIHWIRDNYSEPMRIDDLARLSSMSASAFHRHFRAVTAMSPLQYQKRIRLQHARSMLVAHPGDVAGVGHHVGYDSPSQFNREYRRLFGASPGKDAHGLRGNTALSDTGPLP | not soluble
MKAKREALISLFHAIKEEKVDSDIIDLLLLINSIKGIYTTSSCSGRIGILEEPSLGAKPLSRWLIKVHRPMSFEEARDALKRAREGLIFLKSQPPIFHVVAETIENAKLVHEIGLASGFKYTTFKAISSRFLVEINGTEYLTVPLGKDGRIIASDEYLKFAISIGNKMLERGKSKLPRLRDNFEKIKKKLGEDPLFIQLKREILEILEHHHHHH | not soluble
MGSDKIHHHHHHMSTDNDTETDDSGGHCSTPDSDGEVAEDIAIVAFERKRDTAAEIVAGIGDRYDSIDILDYHGDVFAEHWGEYDCFVGLMASGIAMRKTAGLLDDKWEDPAVVVVDEALTWAIPLTGGHHGANQVADDLASMGAVPAMTTASEAAGKQGVEERAKALDTHVVNGDSTVATNLAVLDENLGPVARLDGPQAVVVGDDVTVLKRNSDDGVVLGTGSVSGADEQQFRDAWAASLAATDYDIDDVEFVATGTRKADEEGLLAAAEALGLGVVAFEKETLEAHEGPTPSRSKELIGWPGIAEASAIAGGRDNELLAEKERYDEAVTVAVGK | not soluble
MKISIENIGKIKSTSILLDGFTVIAGENDSGKSTVGKIVYSIIQAFSIYPQFRKEKIRRKTSHSLRFFITELRRNFDLTKHDSLRQMMSFSFVNHIMADPDDALYEIRGVLDKLEESYPEKLETLIKLKSRLYGIQREIDSLSESDDIFESITDLMQSEFGGEIDRKQDSRPPSFEINDGETTVISAKFSDGIITDGIYSGGLGLGLGDATYIDGASILQYAHLINLNDSDPRLPFHITDLARKLISPTLVRGGSSNLADIYKGRLVFDETQNSFYFDKGGYRVCLNNIASGIKNIGVLDLLVKKGVICDGSLLVLDEPEINLHPKWQTQLAKIICELHQAGVYILLTTHSPYMIEALHYYANVSGIKSNFYLACKSIANPDDVDFIDLSMNVGAIIEDLAQPLWDIVEDNNEFLEHHHHHH | soluble
MGSDKIHHHHHHMRVASERLILGDRITESLFLHTDIPIVEAGKKIGADELRRIKRFLIKEVDIEKRPEGMSEASMMDQELDDMIEDSIFDSLIETYNQVFTSWEQGLVPNVYDALRWVKESMPETMRRDDILPYFLERGTEAYTVRHAIYRGAIAQLLAEAAGKERKMIHDLWVASYFADCGLARIMEWRHTKRYEAMQQEIFHRHPAMAFQALQKENIISDTVKRLIVQHHERLDGSGYPLKVKGDKIMDHTRLFIVADVFAAMTSWRPYREAYKVYDAYCHLKARPMQYDSKYVMLLGQLLLPIEPGDRVLMSNGKIATVLRKNSIFDRPVIAYEEHNRRIVKDLMEDRQLNIIQLMD | not soluble
MEDKIGTTLTTRTVTGSLTPFIPIQDGDQLLVNGRSQDLYGWIYITELLDVINVYPLSLNNNSIVNFQPGTNIFFQLESSSYSSMRVPVARNVAIGKTTTLKGYVGLPDNAGIKFFDDSSIKK | not soluble
MDMTDMTTTGSATEAATAAASSTPLPTFGQSLTEQLTPILGDAETQQLASLIAHLPTIKGQTDEQSIALYVDTLTQLKEKNSVFSGAALSESASIWMRSLQRVSSNGKMDSAELATQMNNALASQFQTWFADQLTDKVDSSLPTQFVSQFQLGTESTQAQQIAKLSAEELKSATGDIASFVDDLARQMSSSVVRESASSFLRNAFAHLPSMNLAQLKASDFLLTEANFVTNVSTQLQNVFKQIGITLTKDVADELAKRITWTPGISKQQLSEVLSEMATQVKGQFTAAYGETAGTENLRKALDAIIKSSDSLTLSSLFANFAVSLIHTEIDAFYNDKAIADIQKTQISADQAELIKNNTERDIRFQFEKMLKGESTGASFIERYETLRKNL | not soluble
MAGDTTITVVGNLTADPELRFTPSGAAVANFTVASTPRMFDRQSGEWKDGEALFLRCNIWREAAENVAESLTRGSRVIVTGRLKQRSFETREGEKRTVVEVEVDEIGPSLRYATAKVNKASRSGGGGGGFGSGGGGSRQSEPKDDPWGSAPASGSFSGADDEPPF | soluble
MGDSFYIRTHFELEPSPPSGLGFTRGDVFHVLDTLHPGPGQSHARGGHWLAVRMGRDLREQERGIIPNQSRAEQLASLEAAQRAVGVGPGSSAGSNARAEFWRLRGLRRGAKKTTQRSREDLSALTRQGRYPPYERVVLREASFKRPVVILGPVADIAMQKLTAEMPDQFEIAETVSRTDSPSKIIKLDTVRVIAEKDKHALLDVTPSAIERLNYVQYYPIVVFFIPESRPALKALRQWLAPASRRSTRRLYAQAQKLRKHSSHLFTATIPLNGTSDTWYQELKAIIREQQTRPIWTAEDQLHHHHHH | soluble
MRKVTVSLIKADVGSVAGHTTVPDELKKAAEENLKNAVDSGLIIDFRVFNAGDDLELLMTHDKGVDSEEIHRLAWETFEKAAGIAKELKLYGAGQDLLKDAFSGNVRGLGPGVAEMEFTERKAEPVIAFMMDKTEPGAFNMPIFRMFADPFNTAGLVIDPTMHQGFVFEIWDIKESKRVFMRTPEEMYDILALIGGKSRFVIKRVYPKEGGKLPADEPVAVISTEKLYEVAGEYVGKDDPVALVRAQSGLPAVGEVLEPFAFPHLVSGWMRGSHNGPIMPVPFKYSKCTRFDGPPRCIAAGFQLANGKIIGPVDMFDDPAFDYTRQKAMEIAEYMRRHGPFEPHRLPSEDMEYTTLPKVLEKLKGRFEEV | not soluble
MGGWEEREIRGHSLGHWLSAAAAMYETTGDKALLERIDRAVQELATIQDDVGYVGGVKRAHFDEMFSGEFQVGHFNIAGTWVPWYNLHKLFAGLIDVHQLTGHSLALTVVTKLADWAKKGTDQLTDDQFQRMLICEHGGMNEAMADLYTLTGHKDYLQLAIRFCHWAVLEPLANGIDELEGKHANTQIPKVIGAAKLFEITGDDTYRAIAEFFWRQVTNDRSYIIGGNSNSEHFGPANKETLGVETAETCNTYNMLKLTEHLFRWNRSSQLMDYYEKALYNHILASQDPDSGMKTYFVSLQPGHFKVYSSLEESFWCCFGTGLENPARYTRTIYDRDDRHIYVNLFMASEIHLKDLQVQIRQETNFPETDRTKLTFVKADGVSIKLHIRVPEWVAGPVTARINGKETFSESGADYLTIEREWQKGDEIEVHLPMELRIYEAKDDSHKVGIMYGPIVLAGTFGKDHFPETDIVPNHLSLHNHPLIDVPTLVATKKTPDQWIHPVEGRSLTFRTAAIGQPGNVQITLIPFYALHHERYTVYWNLMSEVEYEAFKARKEVESDQLQARTVDAVQPGEQQPEVEHQLKANHSETGYLNIMQKRWRDSRGEDGFFSYVMKVKPNQQMSLFVTYYGGDHGLFVDGKWCDRSFRILIDDEVIKEEQLLGKNPGETLDVYYPIPLALTEGKEEVVVTFASKEGTVAGGVYGVRMLCNLEHHHHHH | not soluble
MGSSHHHHHHSSGLVPRGSHMNIGDTLNHSLLNHPLMLSGSTCKTLSDYTNQWLVLYFYPKDNTPGSSTEGLEFNLLLPQFEQINATVLGVSRDSVKSHDSFCAKQGFTFPLVSDSDAILCKAFDVIKEKTMYGRQVIGIERSTFLIGPTHRIVEAWRQVKVPGHAEEVLNKLKAHAEQ | soluble
MGSDKIHHHHHHMSPPVRPVDHLIPEGAMTSFFDFAISQLPAATADRRGPAPDDIDAMLRRDSFAAALRLLAGSFIALYEGSPEMTTLFATRQSRLLCHALLALYFQKSTAEEGEIALTREDFGHLALRHGLASDRVAYVFFKEALKRGLTRPVDATEDQATGVVPSPPALAMLAQWYDVHFQALDLLDEGFRASRFIQRSETTLPHIHPHVSRAFLSHPEVRCPGPLSIIFNWFDAGGLLMDRLIAGIDRELPAEQGRRFTDVQTVTQLATSLSLSRSHVGRKLAAAELIGGIGWSGRRGRSALWISQGFYEEYARTQARKLLILDEALIGFV | not soluble
MALLDKLLTPVMNQYKQPINKCLKVLNKKNNKKTGVAKQNACMDKVWGQALAIITKQFVNKVCTAVAKKMNAKEWNCCKTYVVKVVNVTPYKRFNIVK | not soluble
MSRHPLKIVIAGAGIGGLAAAACLKAAGFEVELYERARELRAVGSALSLMPNALTALERVGVRPDLTRAQAFDSLRFLTRRGRPIRAIDFGGLARQLGQPSLAIHRASLQQALLEQARDCRIELGVSATGYLRHADGEGVTVLCSDGREVHADVLIGADGFNSAIRATMTGPERPTDWHYVIWRATPAFRHPKVTPGYVAHYWGRGQRFGLADIGEGNVYWWGTRNMPAEQAKDWRGGKAGIQRLYAGWADEVQAVIEATPEADISSLPAQDRPFLERWGDGPVTLLGDAAHPMLTSLGQGAAIAIEDAAVLAHCLATIDDPQAALRAYENRRRDRARAMVETSRALSRIEQLEHPLRTVARDLYFRFAPERTFARQNELALTFPGVELEHHHHHH | not soluble
IDSGLSPSVLMASNSGRRSAPPLNLTGLPGTEKLNEKEKELCQVVRLVPGAYLEYKSALLNECHKQGGLRLAQARALIKIDVNKTRKIYDFLIREGYITKA | soluble
MGSDKIHHHHHHMQKKRFFDMRKYRFFSSIECDAMLTFKQMEALYWIVQLGSFDAAATRLNTTQSAVSKRIQELERAFDLTVFDRAHRSARLTDKGAELFDHAKELLEQRDRVVERMSSKEALVRHVRIGVTELTALTWLPRLIAAIQAAYPRVHVEAEVDLTATLRERLAADTIDLIVVPQIHAAESFAATVVGEVDNAWMCAPGFMPKRKTAISLTDVARFPLILQGTLSGTGHLYTRFLQEHCVAMQRVLTSNSLIAQIGLTLSGLGVSYLPKACVAHLVACEALDIVRTRPALPPVRYVALHRAERAHSLTADIVRLAAQACDFSTSLLDPGAHD | not soluble
